From the supplement of paper PMC10567573 come the findings set out here.

B1: NCF4 (parent)
chain: FGPDSKSSALACTLPTLPAKVYVG
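Note: lentivirally expressed fusions sorted by FACS into six bins by GFP to DsRed ratio, PSI derived from sequencing read proportions per bin multiplied by bin number.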

In this series the parent is B1. The experiment in a line: protein stability index of a GFP-peptide fusion (GPS, HEK-293T) (PSI 1-6); higher = more stable. As to conditions: c terminus: a fixed tail appended.
For FGPDSKSGALACTLPTLPAKVYVG, the protein stability index is 2.77. Take FGPDSKSYALACTLPTLPAKVYVG: the protein stability index worked out at 4.4. For FGPDSKSSALACTLPGLPAKVYVG, the protein stability index worked out at 1.88. The value for FGPDSKSSALACTLPQLPAKVYVG was 2.2; that for FGPDSKSSALACTLPVLPAKVYVG was 2.08.

As for FGPDSKSSALACTLPYLPAKVYVG, the protein stability index worked out at 2.45. FGPDSKSSALACTLPLLPAKVYVG: the protein stability index stood at 1.73. Take FGPDSKSSALACTLPHLPAKVYVG: the protein stability index amounted to 2.2. The value for FGPDSKSSALACTLPMLPAKVYVG was 1.76.

Consider FGPDSKSSALACTLPSLPAKVYVG, for which the protein stability index was 2.41.

On to FGPDSKSSALACTLPFLPAKVYVG, for which the protein stability index was 2.38. The value for FGPDSKSSALACTLPALPAKVYVG was 2; that for FGPDSKSSALACTLPELPAKVYVG was 2.4. In the case of FGPDSKSSALACTLPRLPAKVYVG, the protein stability index was 1.97. The same measure for FGPDSKSSALACTLPWLPAKVYVG: 3.26. Take FGPDSKSSALACTLPCLPAKVYVG: the protein stability index is 2.02. The same measure for FGPDSKSSALACTLPILPAKVYVG: 1.66. With FGPDSKSSALACTLPPLPAKVYVG, the protein stability index worked out at 2.05. The value for FGPDSKSSALACTLPDLPAKVYVG was 2.45; that for FGPDSKSSALACTLPKLPAKVYVG was 2.33. The same measure for FGPDSKSSALACTLPNLPAKVYVG: 2.06; for FGPDSKSSAHACTLPTLPAKVYVG: 2.88. The same measure for FGPDSKSSAYACTLPTLPAKVYVG: 1.86; for FGPDSKSSASACTLPTLPAKVYVG: 2.64. Consider FGPDSKSSARACTLPTLPAKVYVG, for which the protein stability index amounted to 3.23. The same measure for FGPDSKSSADACTLPTLPAKVYVG: 3.99; for FGPDSKSSAGACTLPTLPAKVYVG: 2.93; for FGPDSKSSANACTLPTLPAKVYVG: 3.73. The same measure for FGPDSKSSAQACTLPTLPAKVYVG: 2.95. In the case of FGPDSKSSAKACTLPTLPAKVYVG, the protein stability index was 3.29. Regarding FGPDSKSSAMACTLPTLPAKVYVG, the protein stability index came out at 2.69. The value for FGPDSKSSAAACTLPTLPAKVYVG was 2.99; that for FGPDSKSSAFACTLPTLPAKVYVG was 2.15; that for FGPDSKSSAPACTLPTLPAKVYVG was 3.58. The value for FGPDSKSSATACTLPTLPAKVYVG was 3.57; that for FGPDSKSSACACTLPTLPAKVYVG was 2.69. The value for FGPDSKSSAVACTLPTLPAKVYVG was 2.88. As for FGPDSKSSAIACTLPTLPAKVYVG, the protein stability index was 2.12. The value for FGPDSKSSAEACTLPTLPAKVYVG was 3.65. As for FGPDSKSSALACTGPTLPAKVYVG, the protein stability index came out at 2.66.

Take FGPDSKSSALACTQPTLPAKVYVG: the protein stability index amounted to 2.25. The value for FGPDSKSSALACTAPTLPAKVYVG was 2.68; that for FGPDSKSSALACTEPTLPAKVYVG was 2.76. FGPDSKSSALACTVPTLPAKVYVG: the protein stability index came to 2.11. The same measure for FGPDSKSSALACTNPTLPAKVYVG: 2.32; for FGPDSKSSALACTMPTLPAKVYVG: 2.77; for FGPDSKSSALACTDPTLPAKVYVG: 2.84.

On to FGPDSKSSALACTSPTLPAKVYVG, for which the protein stability index was determined as 2.86.

Take FGPDSKSSALACTKPTLPAKVYVG: the protein stability index came to 2.55. The value for FGPDSKSSALACTCPTLPAKVYVG was 1.77; that for FGPDSKSSALACTTPTLPAKVYVG was 2.54. FGPDSKSSALACTRPTLPAKVYVG: the protein stability index is 2.32.

Regarding FGPDSKSSALACTYPTLPAKVYVG, the protein stability index was 1.86. The same measure for FGPDSKSSALACTFPTLPAKVYVG: 2.25. The value for FGPDSKSSALACTWPTLPAKVYVG was 1.51; that for FGPDSKSSALACTIPTLPAKVYVG was 2.15; that for FGPDSKSSALACTHPTLPAKVYVG was 2.19. The value for FGPDSKSSALACTLMTLPAKVYVG was 1.86; that for FGPDSKSSALACTLETLPAKVYVG was 2.29. On to FGPDSKSSALACTLSTLPAKVYVG, for which the protein stability index stood at 1.95. The value for FGPDSKSSALACTLVTLPAKVYVG was 1.99. The value for FGPDSKSSALACTLFTLPAKVYVG was 3.49; that for FGPDSKSSALACTLITLPAKVYVG was 3.1. As to FGPDSKSSALACTLYTLPAKVYVG, the protein stability index was 2.87. The same measure for FGPDSKSSALACTLLTLPAKVYVG: 1.8. With FGPDSKSSALACTLATLPAKVYVG, the protein stability index came to 1.5. The same measure for FGPDSKSSALACTLQTLPAKVYVG: 1.89; for FGPDSKSSALACTLWTLPAKVYVG: 3.34; for FGPDSKSSALACTLKTLPAKVYVG: 1.86. The same measure for FGPDSKSSALACTLNTLPAKVYVG: 1.85; for FGPDSKSSALACTLCTLPAKVYVG: 2.19.

On to FGPDSKSSALACTLHTLPAKVYVG, for which the protein stability index was found to be 1.67. In the case of FGPDSKSSALACTLDTLPAKVYVG, the protein stability index was found to be 1.53. The same measure for FGPDSKSSALACTLRTLPAKVYVG: 1.61. The same measure for FGPDSKSSALACTLGTLPAKVYVG: 1.61; for FGPDSKSSALACTLTTLPAKVYVG: 1.59; for FGPDSKSSALATTLPTLPAKVYVG: 2.76. Consider FGPDSKSSALAVTLPTLPAKVYVG, for which the protein stability index worked out at 2.19. The value for FGPDSKSSALAKTLPTLPAKVYVG was 2.95; that for FGPDSKSSALALTLPTLPAKVYVG was 2.33; that for FGPDSKSSALAHTLPTLPAKVYVG was 3.16. The value for FGPDSKSSALAETLPTLPAKVYVG was 3.13.

On to FGPDSKSSALAATLPTLPAKVYVG, for which the protein stability index came to 2.87. As for FGPDSKSSALAYTLPTLPAKVYVG, the protein stability index is 1.88. The value for FGPDSKSSALAGTLPTLPAKVYVG was 2.41. The same measure for FGPDSKSSALAITLPTLPAKVYVG: 2.3; for FGPDSKSSALAQTLPTLPAKVYVG: 2.36. For FGPDSKSSALADTLPTLPAKVYVG, the protein stability index was 2.95. The same measure for FGPDSKSSALANTLPTLPAKVYVG: 2.77. The same measure for FGPDSKSSALAWTLPTLPAKVYVG: 1.88. The same measure for FGPDSKSSALARTLPTLPAKVYVG: 2.5; for FGPDSKSSALAFTLPTLPAKVYVG: 1.7; for FGPDSKSSALASTLPTLPAKVYVG: 2.87.

For FGPDSKSSALAMTLPTLPAKVYVG, the protein stability index stood at 2.77.
